{"source": "patent US20210063414A1", "about": "“METHODS FOR PREVENTING AND/OR TREATING BONE LOSS CONDITIONS BY MODULATING IRISIN” (Dana-Farber Cancer Institute, Inc., priority 2018, published 2021)", "assay_in_all_cases": "Crosslinking/co-immunoprecipitation/mass spectrometry (TMT quantitative proteomics) to identify irisin receptors", "format_in_all_cases": "binding", "key": {"[1]": {"target": "T1, MLO-Y4 cell surface proteins (Mus musculus, UniProt Q9Z2I9)", "T1 construct": "endogenous in cells; host or cells: MLO-Y4", "T1 sequence (Q9Z2I9 54-463)": "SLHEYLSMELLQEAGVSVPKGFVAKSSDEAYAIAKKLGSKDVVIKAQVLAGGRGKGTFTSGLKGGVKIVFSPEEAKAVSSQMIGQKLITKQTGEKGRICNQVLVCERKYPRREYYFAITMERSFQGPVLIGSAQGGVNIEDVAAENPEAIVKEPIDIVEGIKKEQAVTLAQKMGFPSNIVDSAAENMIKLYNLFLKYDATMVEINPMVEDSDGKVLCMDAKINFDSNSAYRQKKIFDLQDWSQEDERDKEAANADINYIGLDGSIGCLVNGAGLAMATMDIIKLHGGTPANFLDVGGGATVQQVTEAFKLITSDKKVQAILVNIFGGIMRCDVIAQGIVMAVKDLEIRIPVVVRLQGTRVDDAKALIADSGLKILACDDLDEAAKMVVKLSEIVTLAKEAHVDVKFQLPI", "conditions": "co-precipitated protein Sucla2 (SUCB1_MOUSE)", "procedure,_shortened": "(§1)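 Mouse MLO-Y4 cells were switched to serum-free FreeStyle medium for 4 h, chilled, then exposed to 10 nM His-tagged irisin (or adipsin as control) for 20 min. Cells were crosslinked with 1.5 mM DTSSP (30 min, ice), and bound proteins were pulled down on Ni-NTA and eluted with 250 mM imidazole. Eluates were separated by SDS-PAGE, trypsin-digested in gel, TMT 6-plex labelled and quantified by MS3-based LC-MS/MS on an Orbitrap Fusion Lumos.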"}, "[2]": {"target": "T2, MLO-Y4 cell surface proteins (Mus musculus, UniProt P16460)", "T2 construct": "endogenous in cells; host or cells: MLO-Y4", "T2 sequence (P16460 1-412)": "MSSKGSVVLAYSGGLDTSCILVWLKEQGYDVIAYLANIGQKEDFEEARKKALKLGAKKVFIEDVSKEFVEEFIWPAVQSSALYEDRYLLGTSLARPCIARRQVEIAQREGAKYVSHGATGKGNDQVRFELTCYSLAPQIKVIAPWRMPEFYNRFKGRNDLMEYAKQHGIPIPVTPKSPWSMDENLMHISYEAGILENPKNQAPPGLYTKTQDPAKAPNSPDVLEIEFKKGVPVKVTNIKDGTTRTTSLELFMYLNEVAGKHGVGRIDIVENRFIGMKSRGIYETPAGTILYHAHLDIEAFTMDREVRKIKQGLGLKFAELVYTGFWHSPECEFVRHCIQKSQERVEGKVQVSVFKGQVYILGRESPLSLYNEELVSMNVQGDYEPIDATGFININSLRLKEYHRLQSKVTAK", "conditions": "co-precipitated protein Ass1 (ASSY_MOUSE)", "procedure,_shortened": "as §1"}, "[3]": {"target": "T3, MLO-Y4 cell surface proteins (Mus musculus, UniProt Q6NWW9)", "T3 construct": "endogenous in cells; host or cells: MLO-Y4", "T3 sequence (Q6NWW9 whole entry, the tested form may be a part)": "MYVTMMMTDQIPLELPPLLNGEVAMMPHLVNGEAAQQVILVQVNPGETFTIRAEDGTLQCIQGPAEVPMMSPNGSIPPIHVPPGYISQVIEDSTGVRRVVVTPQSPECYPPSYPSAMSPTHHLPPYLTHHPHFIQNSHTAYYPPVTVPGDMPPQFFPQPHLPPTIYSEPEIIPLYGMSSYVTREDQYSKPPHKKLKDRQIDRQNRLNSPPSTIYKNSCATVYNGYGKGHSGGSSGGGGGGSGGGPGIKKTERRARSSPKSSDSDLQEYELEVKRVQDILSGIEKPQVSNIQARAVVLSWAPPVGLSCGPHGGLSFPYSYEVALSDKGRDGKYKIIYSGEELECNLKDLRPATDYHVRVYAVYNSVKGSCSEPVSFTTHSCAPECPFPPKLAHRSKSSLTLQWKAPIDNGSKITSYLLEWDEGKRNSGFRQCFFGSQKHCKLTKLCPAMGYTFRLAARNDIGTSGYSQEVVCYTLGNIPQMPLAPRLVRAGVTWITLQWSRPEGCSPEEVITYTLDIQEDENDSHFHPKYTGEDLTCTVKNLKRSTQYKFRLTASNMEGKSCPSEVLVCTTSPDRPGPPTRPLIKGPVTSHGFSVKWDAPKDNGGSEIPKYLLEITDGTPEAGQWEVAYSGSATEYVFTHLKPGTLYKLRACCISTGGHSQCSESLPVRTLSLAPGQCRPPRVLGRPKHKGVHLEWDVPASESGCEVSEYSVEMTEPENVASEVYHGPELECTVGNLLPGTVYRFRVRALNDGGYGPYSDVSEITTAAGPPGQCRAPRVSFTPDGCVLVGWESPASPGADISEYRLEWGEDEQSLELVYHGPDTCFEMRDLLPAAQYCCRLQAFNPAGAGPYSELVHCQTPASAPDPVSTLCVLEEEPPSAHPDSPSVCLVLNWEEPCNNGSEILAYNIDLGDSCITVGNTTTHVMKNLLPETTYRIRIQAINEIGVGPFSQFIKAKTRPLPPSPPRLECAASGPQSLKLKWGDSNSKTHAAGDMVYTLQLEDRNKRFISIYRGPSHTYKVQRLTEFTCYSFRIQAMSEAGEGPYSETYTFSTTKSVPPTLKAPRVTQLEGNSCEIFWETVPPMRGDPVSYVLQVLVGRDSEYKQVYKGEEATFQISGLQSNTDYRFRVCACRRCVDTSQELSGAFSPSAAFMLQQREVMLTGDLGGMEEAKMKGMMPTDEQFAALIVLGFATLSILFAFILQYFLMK", "conditions": "TMT ratio, Fndc3b Fibronectin type III domain-containing protein 3B", "procedure,_shortened": "as §1"}}, "data": [{"molecule": "irisin: secreted cleaved form of FNDC5; recombinant human/mouse irisin with C-terminal his tag produced in HEK293 cells (protein, left off: small tags and cut ends, secreted cleaved form of FNDC5; recombinant human/mouse irisin with C-terminal his tag produced in HEK293 cells) DSPSAPVNVTVRHLKANSAVVSWDVLEDEVVIGFAISQQKKDVRMLRFIQEVNTTTRSCALWDLEEDTEYIVHVQAISIQGQSPASEPVLFKTPREAEKMASKNKDEVTMKE", "values": [{"measurement": "TMT signal-to-noise ratio", "setting": "[1]", "value": 19.8331}, {"measurement": "irisin/adipsin TMT signal-to-noise ratio", "setting": "[1]", "value": 0.390}, {"measurement": "TMT signal-to-noise ratio", "setting": "[2]", "value": 3.2933}, {"measurement": "irisin/adipsin TMT signal-to-noise ratio", "setting": "[2]", "value": 0.012}, {"measurement": "irsin/adipsin", "setting": "[3]", "value": 2.88}]}]}
